Publication PMC3173395, “Characterization of the latent membrane protein 1 signaling complex of Epstein-Barr virus in the membrane of mammalian cells with bimolecular fluorescence complementation” (Virology Journal, 2011)

Molecular target: T1, A5-Y384G-NYFP (full-length LMP1 with mutations in CTAR1 and CTAR2, NYFP at the C-terminus) (Epstein-Barr virus, B95-8 strain, UniProt P03230 1-386, amino acids 204-208 PQQAT mutated to AAAAA | Y384G)
T1 sequence: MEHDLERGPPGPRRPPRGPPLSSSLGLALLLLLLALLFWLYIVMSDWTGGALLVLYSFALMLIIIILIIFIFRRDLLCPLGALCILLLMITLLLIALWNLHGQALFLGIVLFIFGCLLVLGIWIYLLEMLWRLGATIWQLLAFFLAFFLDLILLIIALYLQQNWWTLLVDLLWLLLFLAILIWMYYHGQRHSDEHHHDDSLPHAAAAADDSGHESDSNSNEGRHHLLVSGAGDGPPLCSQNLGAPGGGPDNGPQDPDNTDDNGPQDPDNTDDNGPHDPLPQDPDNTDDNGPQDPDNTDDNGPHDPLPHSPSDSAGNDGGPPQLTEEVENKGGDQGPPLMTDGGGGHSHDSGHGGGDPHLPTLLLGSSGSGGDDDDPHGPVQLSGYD
Assay: cell-based or functional assay

B1: CYFP-TRAF2 (CYFP fused to the amino-terminus of TRAF2, amino acids 98-501) (domain or fragment)
chain: REVESLPAVCPSDGCTWKGTLKEYESCHEGRCPLMLTECPACKGLVRLGEKERHLEHECPERSLSCRHCRAPCCGADVKAHHEVCPKFPLTCDGCGKKKIPREKFQDHVKTCGKCRVPCRFHAIGCLETVEGEKQQEHEVQWLREHLAMLLSSVLEAKPLLGDQSHAGSELLQRCESLEKKTATFENIVCVLNREVERVAMTAEACSRQHRLDQDKIEALSSKVQQLERSIGLKDLAMADLEQKVLEMEASTYDGVFIWKISDFARKRQEAVAGRIPAIFSPAFYTSRYGYKMCLRIYLNGDGTGRGTHLSLFFVVMKGPNDALLRWPFNQKVTLMLLDQNNREHVIDAFRPDVTSSSFQRPVNDMNIASGCPLFCPVSKMEAKNSYVRDDAIFIKAIVDLTGL
- NF-kB luciferase reporter activity in HEK-293T cells transfected with A5-Y384G-NYFP + A5-Y384G-CYFP (A5-Y384G BiFC), fold above vector; about 50% of LMP1 and LMP1-BiFC: ~22 fold
